This note sets out measurements from patent publication US20030148958A1 (PROCTER AND GAMBLE, published 2003).

In one assay the target is T1, CRF2R.
T1 sequence (Q13324 whole entry, species assumed, looked up): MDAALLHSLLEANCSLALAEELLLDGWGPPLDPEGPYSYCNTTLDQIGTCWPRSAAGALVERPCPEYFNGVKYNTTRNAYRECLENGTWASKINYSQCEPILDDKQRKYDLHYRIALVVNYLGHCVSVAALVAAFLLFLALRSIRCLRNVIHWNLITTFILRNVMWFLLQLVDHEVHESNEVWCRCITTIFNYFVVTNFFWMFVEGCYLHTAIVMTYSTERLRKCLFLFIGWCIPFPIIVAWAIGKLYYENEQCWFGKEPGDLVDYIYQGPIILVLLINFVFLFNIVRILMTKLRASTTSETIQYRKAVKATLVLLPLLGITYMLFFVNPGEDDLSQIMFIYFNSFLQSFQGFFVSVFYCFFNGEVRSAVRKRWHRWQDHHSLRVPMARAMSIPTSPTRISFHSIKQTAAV
The experiment in a line: cell-based or functional assay.

Another assay deals with CRF1R. The experiment in a line: cell-based or functional assay.

Ends that are not written are not given here.
For CRF1R Emax % in this document: reference of the scale not given here.
For CRF2R Emax % in this document: reference of the scale not given here.

As for IVLSLDVPIGLLQKMIEIEKQEKEKQQATTNARILARV-NH2 [SEQ ID NO 322], in the assay with CRF2R, the “CRF2R EC50” value came to 23.1 nM and the “CRF2R Emax %” value came to 96.5%. In the assay with CRF1R, the “CRF1R EC50” value was 1000 nM and the “CRF1R Emax %” value was 10.7%.

In the case of HHHHHHIVLSLDVPIGLLQILLEQARARAAREQATTNARILARN-NH2 [SEQ ID NO 296], in the assay with CRF2R, the “CRF2R EC50” value is 6.66 nM and the “CRF2R Emax %” value is 65%. For the same molecule, in the assay with CRF1R, the “CRF1R EC50” value is 100 nM and the “CRF1R Emax %” value worked out at 4%.

As for ZGPPISIDLPYHLLRKMIEIEKQEKEKQQAANNALLLAT (C-terminal amide) [SEQ ID NO 315], in the assay with CRF2R, the “CRF2R EC50” value was 9.35 nM and the “CRF2R Emax %” value was 81.7%. Besides, in the assay with CRF1R, the “CRF1R EC50” value was 454 nM and the “CRF1R Emax %” value was 100%.

Turning to ZGPPISIDLPLQLLRKVIEIEKQEKEKQQATTNARILARV (C-terminal amide) [SEQ ID NO 320], in the assay with CRF2R, the “CRF2R EC50” value turned out to be 19.1 nM and the “CRF2R Emax %” value came to 100%. Further, in the assay with CRF1R, the “CRF1R EC50” value was 718 nM and the “CRF1R Emax %” value was found to be 68.8%.

With ZGPPISIDLPFQLLRKTIEIEKQEKEKQQATTNARLLDRV (C-terminal amide) [SEQ ID NO 321], in the assay with CRF2R, the “CRF2R EC50” value is 19.6 nM and the “CRF2R Emax %” value was 86.8%. For the same molecule, in the assay with CRF1R, the “CRF1R EC50” value amounted to 1000 nM and the “CRF1R Emax %” value was found to be 33.8%.

As to ZGPPISIDLPTALLRKMIEIEKQEKEKQQAANNRLLLDTI (C-terminal amide) [SEQ ID NO 301], in the assay with CRF2R, the “CRF2R EC50” value came out at 50.5 nM and the “CRF2R Emax %” value came to 88.4%. Also, in the assay with CRF1R, the “CRF1R EC50” value was 690 nM and the “CRF1R Emax %” value came to 84.1%.

In the case of ZGPPISIDLPYALLRKMIEIEKQEKEKQQAANNRLLLDTI (C-terminal amide) [SEQ ID NO 309], in the assay with CRF2R, the “CRF2R EC50” value was determined as 5.55 nM and the “CRF2R Emax %” value worked out at 99.9%. Moreover, in the assay with CRF1R, the “CRF1R EC50” value worked out at 108 nM and the “CRF1R Emax %” value stood at 96.3%.

As to ZGPPISIDLPFFLLRKMIEIEKQEKEKQQAANNALLLDTI (C-terminal amide) [SEQ ID NO 318], in the assay with CRF2R, the “CRF2R EC50” value amounted to 9.95 nM and the “CRF2R Emax %” value is 95.4%. In the assay with CRF1R, the “CRF1R EC50” value was 134 nM and the “CRF1R Emax %” value is 92.8%.

For the molecule ZGPPISIDLPQALLRKMIEIEKQEKEKQQAANNRLLLDTI (C-terminal amide) [SEQ ID NO 302], in the assay with CRF2R, the “CRF2R EC50” value was determined as 36.2 nM and the “CRF2R Emax %” value worked out at 100%. For the same molecule, in the assay with CRF1R, the “CRF1R EC50” value is 366 nM and the “CRF1R Emax %” value amounted to 100%.

In the case of ZGPPISIDLPYHLLRKMIEIEKQEKEKQQAANNALLLDTI (C-terminal amide) [SEQ ID NO 314], in the assay with CRF2R, the “CRF2R EC50” value was 10.3 nM and the “CRF2R Emax %” value was found to be 99.8%. Besides, in the assay with CRF1R, the “CRF1R EC50” value is 978 nM and the “CRF1R Emax %” value was determined as 82.4%.

As for ZGPPISIDLPVALLRKMIEIEKQEKEKQQAANNRLLLDTI (C-terminal amide) [SEQ ID NO 305], in the assay with CRF2R, the “CRF2R EC50” value amounted to 35.5 nM and the “CRF2R Emax %” value came out at 95.2%. In the assay with CRF1R, the “CRF1R EC50” value was 1000 nM and the “CRF1R Emax %” value was determined as 59.5%.

On to ZGPPISIDLPIALLRKMIEIEKQEKEKQQAANNRLLLDTI (C-terminal amide) [SEQ ID NO 306], for which, in the assay with CRF2R, the “CRF2R EC50” value was found to be 27.6 nM and the “CRF2R Emax %” value was 100%. In the assay with CRF1R, the “CRF1R EC50” value turned out to be 608 nM and the “CRF1R Emax %” value was found to be 97.7%.

On to ZGPPISIDLPAALLRKMIEIEKQEKEKQQAANNRLLLDTI (C-terminal amide) [SEQ ID NO 303], for which, in the assay with CRF2R, the “CRF2R EC50” value amounted to 27.2 nM and the “CRF2R Emax %” value was 100%. Moreover, in the assay with CRF1R, the “CRF1R EC50” value was found to be 582 nM and the “CRF1R Emax %” value was 100%.

For ZGPPISIDLPYWLLRKMIEIEKQEKEKQQAANNALLLDTI (C-terminal amide) [SEQ ID NO 310], in the assay with CRF2R, the “CRF2R EC50” value was 8.7 nM and the “CRF2R Emax %” value was 87.5%. In addition, in the assay with CRF1R, the “CRF1R EC50” value worked out at 1000 nM and the “CRF1R Emax %” value amounted to 45.3%.

ZGPPISIDLPFALLRKMIEIEKQEKEKQQAANNRLLLDTI (C-terminal amide) [SEQ ID NO 307]: in the assay with CRF2R, the “CRF2R EC50” value is 5.82 nM and the “CRF2R Emax %” value turned out to be 96.5%. Moreover, in the assay with CRF1R, the “CRF1R EC50” value was 78.4 nM and the “CRF1R Emax %” value is 92.7%.

Regarding ZGPPISIDLPLALLRKMIEIEKQEKEKQQAANNRLLLDTI (C-terminal amide) [SEQ ID NO 308], in the assay with CRF2R, the “CRF2R EC50” value stood at 3.3 nM and the “CRF2R Emax %” value amounted to 72.8%. In addition, in the assay with CRF1R, the “CRF1R EC50” value came to 63.5 nM and the “CRF1R Emax %” value came out at 100%.

As for ZGPPISIDLPHALLRKMIEIEKQEKEKQQAANNRLLLDTI (C-terminal amide) [SEQ ID NO 304], in the assay with CRF2R, the “CRF2R EC50” value amounted to 19.3 nM and the “CRF2R Emax %” value was determined as 92.5%. In the assay with CRF1R, the “CRF1R EC50” value came to 116 nM and the “CRF1R Emax %” value is 100%.

On to IVLSLDVPIGLLQILLEQEKARAAREQATTNARILARV-NH2 [SEQ ID NO 325], for which, in the assay with CRF2R, the “CRF2R EC50” value was 11.7 nM and the “CRF2R Emax %” value was 100%. In the assay with CRF1R, the “CRF1R EC50” value was found to be 100 nM and the “CRF1R Emax %” value is 5%.

For DNPSLSIDLPLLLLRTLLELEKTQSQRERAEQNAQIFAHV-NH2 [SEQ ID NO 324], in the assay with CRF2R, the “CRF2R EC50” value is 17.2 nM and the “CRF2R Emax %” value came to 100%. Also, in the assay with CRF1R, the “CRF1R EC50” value is 1000 nM and the “CRF1R Emax %” value amounted to 46.6%.

On to IVLSLDVPIGLLQKVIEIEKQEKEKQQATTNARILARV-NH2 [SEQ ID NO 300], for which, in the assay with CRF2R, the “CRF2R EC50” value worked out at 17.1 nM and the “CRF2R Emax %” value was 100%. In addition, in the assay with CRF1R, the “CRF1R EC50” value stood at 1000 nM and the “CRF1R Emax %” value came to 7.95%.

Consider ZGPPISIDLPIILLRKVIEIEKQEKEKQQAANNARLLARI (C-terminal amide) [SEQ ID NO 295], for which, in the assay with CRF2R, the “CRF2R EC50” value came out at 55 nM and the “CRF2R Emax %” value was 67.6%. In addition, in the assay with CRF1R, the “CRF1R EC50” value turned out to be 1000 nM and the “CRF1R Emax %” value worked out at 5.3%.

Take ZGPPISIDLPFFLLRKVIEIEKQEKEKQQAANNALLLDTI (C-terminal amide) [SEQ ID NO 316]: in the assay with CRF2R, the “CRF2R EC50” value worked out at 10.2 nM and the “CRF2R Emax %” value turned out to be 94.5%. Also, in the assay with CRF1R, the “CRF1R EC50” value is 222 nM and the “CRF1R Emax %” value turned out to be 92.3%.

For the molecule ZGPPISIDLPQILLRKVIEIEKQEKEKQQAANNALLLATI (C-terminal amide) [SEQ ID NO 299], in the assay with CRF2R, the “CRF2R EC50” value was 46.4 nM and the “CRF2R Emax %” value stood at 71.5%. Moreover, in the assay with CRF1R, the “CRF1R EC50” value was 1000 nM and the “CRF1R Emax %” value is 10.2%.

Turning to ZGPPISIDLPIILLRKVIEIEKQEKEKQQAANNRLLLDTI (C-terminal amide) [SEQ ID NO 297], in the assay with CRF2R, the “CRF2R EC50” value was found to be 100 nM and the “CRF2R Emax %” value worked out at 88.3%. Besides, in the assay with CRF1R, the “CRF1R EC50” value worked out at 1000 nM and the “CRF1R Emax %” value was 27.2%.

With ZGPPISIDLPFFLLRKMIEIEKQEKEKQQAANNALLLATI (C-terminal amide) [SEQ ID NO 319], in the assay with CRF2R, the “CRF2R EC50” value was determined as 8.5 nM and the “CRF2R Emax %” value was found to be 95%. In addition, in the assay with CRF1R, the “CRF1R EC50” value came out at 106 nM and the “CRF1R Emax %” value was determined as 88.3%.

As for ZGPPISIDLPFFLLRKVIEIEKQEKEKQQAANNALLLATI (C-terminal amide) [SEQ ID NO 317], in the assay with CRF2R, the “CRF2R EC50” value was found to be 9.3 nM and the “CRF2R Emax %” value worked out at 88.3%. In the assay with CRF1R, the “CRF1R EC50” value is 188 nM and the “CRF1R Emax %” value stood at 100%.

ZGPPISIDLPIFLLRKMIEIEKQEKEKQQAANNALLLATI (C-terminal amide) [SEQ ID NO 298]: in the assay with CRF2R, the “CRF2R EC50” value is 82 nM and the “CRF2R Emax %” value is 98.8%. Besides, in the assay with CRF1R, the “CRF1R EC50” value is 1000 nM and the “CRF1R Emax %” value was determined as 20.1%.

Consider ZGPPISIDLPYHLLRKVIEIEKQEKEKQQAANNALLLATI (C-terminal amide) [SEQ ID NO 313], for which, in the assay with CRF2R, the “CRF2R EC50” value is 11.1 nM and the “CRF2R Emax %” value was 95%. Besides, in the assay with CRF1R, the “CRF1R EC50” value came out at 704 nM and the “CRF1R Emax %” value is 87.1%.

For the molecule ZGPPISIDLPYWLLRKVIEIEKQEKEKQQAANNALLLDTI (C-terminal amide) [SEQ ID NO 311], in the assay with CRF2R, the “CRF2R EC50” value amounted to 11.7 nM and the “CRF2R Emax %” value turned out to be 100%. In the assay with CRF1R, the “CRF1R EC50” value was determined as 1000 nM and the “CRF1R Emax %” value amounted to 29.7%.

As for ZGPPISIDLPYHLLRKVIEIEKQEKEKQQAANNALLLDTI (C-terminal amide) [SEQ ID NO 312], in the assay with CRF2R, the “CRF2R EC50” value was found to be 14.1 nM and the “CRF2R Emax %” value came to 95%. In addition, in the assay with CRF1R, the “CRF1R EC50” value came out at 870 nM and the “CRF1R Emax %” value was found to be 62%.

For DNPSLSIDLPLLLLRTLLELEKTQSQRERAEQNAEIFAEV-NH2 [SEQ ID NO 323], in the assay with CRF2R, the “CRF2R EC50” value came to 19.6 nM and the “CRF2R Emax %” value worked out at 100%. In the assay with CRF1R, the “CRF1R EC50” value is 1000 nM and the “CRF1R Emax %” value was found to be 36.9%.
